Here are results for two molecules from patent publication US20190135932A1 (Pfizer, published 2019).

Values joined by “and” are separate entries in the source; they are usually repeats but may differ in a detail not shown here. Equal entries are not always repeated.

The target of assay [1] is T1, human OX40R on activated primary human T cells (human, UniProt P43489 29-277).
T1 sequence (looked up): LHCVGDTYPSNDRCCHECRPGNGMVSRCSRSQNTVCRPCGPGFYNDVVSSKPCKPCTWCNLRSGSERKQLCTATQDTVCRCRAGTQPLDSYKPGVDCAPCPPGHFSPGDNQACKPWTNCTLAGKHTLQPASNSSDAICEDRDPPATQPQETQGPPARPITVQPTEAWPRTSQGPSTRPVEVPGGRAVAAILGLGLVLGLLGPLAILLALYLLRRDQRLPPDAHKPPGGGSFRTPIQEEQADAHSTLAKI
Kind of assay: cell-based or functional assay.

Assay [2] addresses T2, recombinant human OX40-CD40 fusion construct (amino acids 1-235 of OX40, 216-278 of CD40) expressed on 300-19 … (human, UniProt P43489 29-235; P25942 216-277).
T2 construct: range 1-235;range 216-278; also called OX40R+ 300-19 cells; OX40R transfected cells
T2 sequence (looked up): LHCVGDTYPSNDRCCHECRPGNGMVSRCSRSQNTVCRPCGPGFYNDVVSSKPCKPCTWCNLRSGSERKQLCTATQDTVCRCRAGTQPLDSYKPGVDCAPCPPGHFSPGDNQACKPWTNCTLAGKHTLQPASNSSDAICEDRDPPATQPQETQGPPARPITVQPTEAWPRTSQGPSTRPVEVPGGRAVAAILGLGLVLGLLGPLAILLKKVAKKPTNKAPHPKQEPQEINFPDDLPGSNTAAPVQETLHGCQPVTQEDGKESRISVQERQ
Kind of assay: FACS saturation binding on OX40R+ 300-19 cells (N = 2). The method, then:
(§1) OX40R-expressing cell lines (see below) or activated primary peripheral blood mononuclear cells (see below) were used to assess binding on both the human and cynomolgus OX40 receptors. Cells were harvested and washed (5×10⁵/tube) using wash buffer at RT°. The wash buffer consisted of PBS, 2% heat-inactivated fetal bovine serum (Hyclone, Logan, Utah) and 0.02% sodium azide (Sigma, St. Louis, Mo.). Next, 100 μl of various concentrations of antibody was added to the cells (starting at 30 ug/ml and using a 3-fold titration) diluted in wash buffer containing 0.005 mg/ml of cytocholasin B (Sigma, St. Louis, Mo.). The cells were gently rocked at RT° for 3 hours. Next, the cells were washed twice and resuspended in 0.5 ml/tube with cold wash buffer and 10,000 events were collected and analyzed using a Becton Dickinson FACSCalibur and CellQuest software (San Jose, Calif.).

Assay [3] has as its target T3, Biotinylated CD134-muIg (Ancell 513-030) (UniProt P43489 29-214, biotinylated).
T3 construct: extracellular domain; Captured on streptavidin on a CM5 chip; also called OX40R extracellular domain fusion protein (Biacore ligand); not shown: murine Ig part (muIg) of the bought fusion
T3 sequence (looked up): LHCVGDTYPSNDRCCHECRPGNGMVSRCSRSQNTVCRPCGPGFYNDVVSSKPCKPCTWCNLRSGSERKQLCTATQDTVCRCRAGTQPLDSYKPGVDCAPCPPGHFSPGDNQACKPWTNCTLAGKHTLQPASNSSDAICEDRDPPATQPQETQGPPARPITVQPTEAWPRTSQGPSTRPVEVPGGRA
Nature of the assay: Biacore (SPR), biotinylated CD134-muIg captured on streptavidin, antibody in solution. How it is done:
Biotinylated CD134-muIg (Ancell 513-030), at a concentration of 10 μg/ml at a flow rate of 5 μl/min was manually injected over Flow cells-2, 3 and 4 to achieve 3 surface densities: Fc-2=150RU, Fc-3=375RU and Fc-4=580RU. The different density surfaces were prepared to monitor the possibility of mass transport limited binding during association phase and rebinding during dissociation, both artifacts that are influenced by surface density that must be avoided.
In general terms: In SPR one partner is held on a chip, and binding of the other changes the refractive index at the surface.

Assay [4] deals with T4, OX40R extracellular and transmembrane domain fused to the intracellular domain of CD40, in 293 cells with an … (UniProt P43489 29-235; P25942 216-277, limits assumed).
T4 sequence (looked up): T2 sequence (looked up)
Nature of the assay: cell-based or functional assay.

Assay [5] deals with T5, commercially available fusion protein containing the extracellular domain of the murine OX40R (mouse, UniProt P47741 20-211).
T5 construct: extracellular domain; Bought; also called mouse OX40R fusion protein
T5 sequence (looked up): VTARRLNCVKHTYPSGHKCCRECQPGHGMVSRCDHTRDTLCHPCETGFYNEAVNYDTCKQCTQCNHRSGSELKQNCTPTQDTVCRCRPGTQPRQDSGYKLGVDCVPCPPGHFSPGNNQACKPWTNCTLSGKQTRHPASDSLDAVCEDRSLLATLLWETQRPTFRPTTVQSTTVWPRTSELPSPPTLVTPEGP
Nature of the assay: ELISA.

Assay [6] concerns the target T6, cynomolgus OX40R on activated cynomolgus monkey T cells / PBMCs (cynomolgus monkey).
T6 construct: whole, on cells; also called monkey cells; cynomolgus PBMC's stimulated with anti-CD3 and anti-CD28
Kind of assay: FACS saturation binding on anti-CD3 and anti-CD28 stimulated cynomolgus PBMCs, average over 14 individual monkeys. The method, then:
as §1
Cynomolgus whole blood was obtained using heparinized vacutainer tubes (BD; Franklin Lakes, N.J.) and was diluted 1:4 in PBS. Diluted whole blood was mixed and 15 mls was carefully layered over an equal volume of Histopaque 1077 (Sigma, St Louis, Mo.). […] After a PBS wash, the PBMCs were counted and readjusted to 1×10⁶/ml in tissue culture medium (TCM). […]

A word on the EC50: it is the concentration at which the effect is half-maximal. One may read the Kd as the concentration at which binding is half-saturated. For orientation: koff means a measure of how fast the partners let go of each other.

B1: human monoclonal antibody 18D8 (antibody, human IgG2, kappa, V domains shown)
VH: EVQLVESGGGLVQPGRSLRLSCAASGFTFDDYAMHWVRQAPGKGLEWVSGISWNSGSIGYADSVKGRFTISRDNAKNSLYLQMNSLRAEDTALYYCAKDQSTADYYFYYGMDVWGQGTTVTVSS
VL: EIVVTQSPATLSLSPGERATLSCRASQSVSSYLAWYQQKPGQAPRLLIYDASNRATGIPARFSGSGSGTDFTLTISSLEPEDFAVYYCQQRSNWPTFGQGTKVEIKR
As for B1, in assay [1], the “EC50 of anti-CD3 induced IL-2 production by primary human T cells, donor four” value is 0.024 µg/mL; the “EC50 of anti-CD3 induced IL-2 production by primary human T cells, donor one” value stood at 0.024 µg/mL; the “EC50 of anti-CD3 induced IL-2 production by primary human T cells, donor three” value turned out to be 0.013 µg/mL; the “EC50 of anti-CD3 induced IL-2 production by primary human T cells, donor two” value came out at 0.135 µg/mL. In addition, the concentration for a half-maximal effect (EC50) in assay [2] is 0.24 µg/mL and 1.66 nM. Further, in assay [3], the dissociation constant Kd was 0.49 µg/mL and 3.38 nM; the off-rate (koff) is 0.00029 s⁻¹.

B2: human monoclonal antibody 11D4 (antibody, V domains shown)
VH: EVQLVESGGGLVQPGGSLRLSCAASGFTFSSYSMNWVRQAPGKGLEWVSYISSSSSTIDYADSVKGRFTISRDNAKNSLYLQMNSLRDEDTAVYYCARESGWYLFDYWGQGTLVTVSS
VL: DIQMTQSPSSLSASVGDRVTITCRASQGISSWLAWYQQKPEKAPKSLIYAASSLQSGVPSRFSGSGSGTDFTLTISSLQPEDFATYYCQQYNSYPPTFGGGTKVEIKR
notes: IgG2 heavy chain, kappa light chain; allotypes G2(n-) and Km3; Alexa Fluor 647 conjugate was used in the species cross-reactivity FACS
Turning to B2, the “In vitro stimulation of OX40R+ transfected cells (luciferase) (EC50; N = 4)” value in assay [4] was 0.33 µg/ml and 2.2 nM. In addition, the binding result in assay [5] is “no binding”. Moreover, a half-maximal effect in assay [6] (EC50) was put at 0.354 µg/mL.
